From paper PMC12142464, “High-light-inducible proteins control associations between chlorophyll synthase and the Photosystem II biogenesis factor Ycf39” (Plant Physiology, 2025)
Where “and” joins values, the source holds several entries; their conditions need not be identical. Equal values may be shown once.

T1: 3xFLAG-tagged chlorophyll synthase ChlG (Synechocystis sp. PCC 6803, UniProt Q55145 1-324)
T1 construct: Chlorophyll synthase ChlG, Synechocystis sp; PCC 6803, made instead of the native enzyme; Isolated complexes carry chlorophyll and carotenoids; also called f.ChlG; FLAG-tagged ChlG
T1 sequence (looked up): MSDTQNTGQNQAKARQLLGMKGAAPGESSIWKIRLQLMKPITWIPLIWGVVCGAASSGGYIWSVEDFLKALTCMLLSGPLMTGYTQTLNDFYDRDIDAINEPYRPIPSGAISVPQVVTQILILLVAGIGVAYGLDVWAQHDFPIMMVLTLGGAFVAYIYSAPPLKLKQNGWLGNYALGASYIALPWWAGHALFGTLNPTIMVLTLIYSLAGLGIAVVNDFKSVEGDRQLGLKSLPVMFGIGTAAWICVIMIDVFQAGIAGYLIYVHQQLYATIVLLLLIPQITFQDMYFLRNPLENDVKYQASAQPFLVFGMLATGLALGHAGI

B1: High-light-inducible protein C (native) (natural protein, UniProt P73563 1-47, looked up)
chain: MNNENSKFGFTAFAENWNGRLAMIGFSSALILELVSGQGVLHFFGIL
notes: High-light-inducible protein HliC (5.2 kDa), Synechocystis sp; PCC 6803; also called HliC; ScpB; source: endogenous, Synechocystis solubilised membranes (high light)
B2: High-light-inducible protein D (native) (natural protein, UniProt P72932 1-57, looked up)
chain: MSEELQPNQTPVQEDPKFGFNNYAEKLNGRAAMVGFLLILVIEYFTNQGVLAWLGLR
notes: High-light-inducible protein HliD (6.5 kDa), Synechocystis sp; PCC 6803; also called HliD; ScpE; source: endogenous, Synechocystis solubilised membranes

Tests used:
Settings in all cases: partners not purified
[1] = target: B2; assay: co-IP; f.ChlG isolated with anti-FLAG resin from membranes solubilised with 1% n-dodecyl-β-D-maltoside and 1% glycol-diosgenin; eluate resolved by 2D CN (A8-35 amphipol)/SDS-PAGE, CBB stain; strains f.chlG/ΔchlG (HL 2 h), f.chlG/ΔchlG/ΔhliC (HL 2 h), f.chlG/ΔchlG/ΔhliC/Δycf39 (NL)
[2] = target: T1, 3xFLAG-tagged chlorophyll synthase ChlG; assay: affinity purification with mass spectrometry; f.ChlG anti-FLAG pulldown from f.chlG/ΔchlG cells, HL 16 h; quantitative MS with ^15N-labeled internal standard
[3] = target: T1, 3xFLAG-tagged chlorophyll synthase ChlG; assay: affinity purification with mass spectrometry; f.ChlG anti-FLAG pulldown from f.chlG/ΔchlG cells grown under NL; quantitative MS with ^15N-labeled internal standard
[4] = target: T1, 3xFLAG-tagged chlorophyll synthase ChlG; assay: affinity purification with mass spectrometry; f.ChlG anti-FLAG pulldown from f.chlG/ΔchlG/ΔhliC cells, HL 16 h; quantitative MS with ^15N-labeled internal standard
[5] = target: T1, 3xFLAG-tagged chlorophyll synthase ChlG; assay: affinity purification with mass spectrometry; f.ChlG anti-FLAG pulldown from f.chlG/ΔchlG/ΔhliC cells grown under NL; quantitative MS with ^15N-labeled internal standard
[6] = target: T1, 3xFLAG-tagged chlorophyll synthase ChlG; assay: co-IP; f.ChlG isolated with anti-FLAG resin from membranes solubilised with 1% n-dodecyl-β-D-maltoside and 1% glycol-diosgenin; eluate resolved by 2D CN (A8-35 amphipol)/SDS-PAGE, CBB stain; strains f.chlG/ΔchlG (HL 2 h), f.chlG/ΔchlG/ΔhliC (HL 2 h), f.chlG/ΔchlG/ΔhliC/Δycf39 (NL)

stoichiometry N [1] | stoichiometry N [2] | stoichiometry N [3] | stoichiometry N [4] | stoichiometry N [5] | Binder | stoichiometry N [6]
~1 HliC per HliD |  |  |  |  | B1 | 
 | 1.12 per 1 ChlG | 1.54 per 1 ChlG | 1.51 per 1 ChlG | 1.47 per 1 ChlG | B2 | ~1 HliD per f.ChlG (G-D2-G complex) and ~2 HliD per f.ChlG (G-D2 complex)
